Article PMC5818740 (2018)
Ends that are not written are not given here.

Molecular target: PICK PDZ-BAR construct
Assay: FP

Sequence of PICK PDZ-BAR construct (chain, as listed by the source): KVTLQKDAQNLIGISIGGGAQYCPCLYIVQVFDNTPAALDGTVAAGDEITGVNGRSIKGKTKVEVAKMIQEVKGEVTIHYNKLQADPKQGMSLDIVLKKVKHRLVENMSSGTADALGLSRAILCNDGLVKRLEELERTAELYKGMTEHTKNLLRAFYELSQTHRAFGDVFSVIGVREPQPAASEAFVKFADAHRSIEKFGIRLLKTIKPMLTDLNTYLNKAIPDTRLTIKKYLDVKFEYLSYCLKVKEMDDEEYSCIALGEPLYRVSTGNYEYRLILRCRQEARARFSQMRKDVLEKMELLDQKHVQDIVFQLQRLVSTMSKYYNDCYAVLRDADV

IC50: 15.3 µM
Binder: VYGIESVKI-OH [GluR2 peptide (competitor in the fluorescence polarization assay)]
